According to publication PMC12865225 (Clinical and Translational Science, 2026):
Several values for one entry are separate records, joined by “and”; a condition that tells them apart may be missing. Equal entries are not always repeated.

T1: OATP1B1 (Homo sapiens, UniProt Q9Y6L6)
T1 construct: expressed in transfected cells; host or cells: HEK293 (recombinant baculovirus-mediated transduction)
T1 sequence (Q9Y6L6 1-691): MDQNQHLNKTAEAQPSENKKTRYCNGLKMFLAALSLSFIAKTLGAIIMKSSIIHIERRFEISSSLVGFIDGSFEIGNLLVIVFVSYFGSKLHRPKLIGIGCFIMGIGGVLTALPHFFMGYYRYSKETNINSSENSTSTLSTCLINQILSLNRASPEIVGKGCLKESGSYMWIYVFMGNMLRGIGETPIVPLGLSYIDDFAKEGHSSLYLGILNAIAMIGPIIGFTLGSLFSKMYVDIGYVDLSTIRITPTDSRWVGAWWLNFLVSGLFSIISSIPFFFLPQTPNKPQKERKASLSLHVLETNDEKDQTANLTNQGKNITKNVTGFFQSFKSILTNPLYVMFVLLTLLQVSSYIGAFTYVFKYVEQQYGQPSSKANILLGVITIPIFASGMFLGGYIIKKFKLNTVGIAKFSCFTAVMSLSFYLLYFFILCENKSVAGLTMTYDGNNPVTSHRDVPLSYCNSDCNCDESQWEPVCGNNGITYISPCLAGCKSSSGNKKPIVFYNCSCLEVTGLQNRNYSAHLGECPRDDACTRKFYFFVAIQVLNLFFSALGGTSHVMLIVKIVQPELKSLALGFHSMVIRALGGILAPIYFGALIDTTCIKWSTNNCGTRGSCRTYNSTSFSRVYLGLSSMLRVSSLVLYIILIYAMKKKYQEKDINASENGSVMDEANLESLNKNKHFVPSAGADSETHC

T2: OATP1B3 (Homo sapiens, UniProt Q9NPD5)
T2 construct: expressed in transfected cells; host or cells: HEK293 (recombinant baculovirus-mediated transduction)
T2 sequence (Q9NPD5 1-702): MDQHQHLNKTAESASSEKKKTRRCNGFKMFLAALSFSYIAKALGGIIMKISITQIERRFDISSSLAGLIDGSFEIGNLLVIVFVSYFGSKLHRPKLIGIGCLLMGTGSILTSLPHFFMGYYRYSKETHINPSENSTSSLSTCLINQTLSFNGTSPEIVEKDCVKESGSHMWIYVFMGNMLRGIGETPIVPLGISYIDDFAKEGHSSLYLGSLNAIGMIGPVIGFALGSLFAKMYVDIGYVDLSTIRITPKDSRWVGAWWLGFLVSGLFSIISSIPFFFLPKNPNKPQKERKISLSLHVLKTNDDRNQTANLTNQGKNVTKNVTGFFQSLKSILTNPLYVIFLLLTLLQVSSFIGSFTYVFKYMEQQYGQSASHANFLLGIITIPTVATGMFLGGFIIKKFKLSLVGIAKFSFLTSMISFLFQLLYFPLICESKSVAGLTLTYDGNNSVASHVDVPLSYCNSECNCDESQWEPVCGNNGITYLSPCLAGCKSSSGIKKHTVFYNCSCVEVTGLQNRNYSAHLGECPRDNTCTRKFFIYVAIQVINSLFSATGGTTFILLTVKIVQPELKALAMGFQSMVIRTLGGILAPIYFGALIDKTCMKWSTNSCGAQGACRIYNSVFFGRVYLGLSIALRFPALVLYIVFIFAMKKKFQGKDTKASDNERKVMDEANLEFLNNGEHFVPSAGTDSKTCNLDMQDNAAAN

B1: OATP1B1 (Homo sapiens) (protein)
chain: T1 sequence (Q9Y6L6 1-691)
B2: OAT3 (Homo sapiens) (protein)
chain: MTFSEILDRVGSMGHFQFLHVAILGLPILNMANHNLLQIFTAATPVHHCRPPHNASTGPWVLPMGPNGKPERCLRFVHPPNASLPNDTQRAMEPCLDGWVYNSTKDSIVTEWDLVCNSNKLKEMAQSIFMAGILIGGLVLGDLSDRFGRRPILTCSYLLLAASGSGAAFSPTFPIYMVFRFLCGFGISGITLSTVILNVEWVPTRMRAIMSTALGYCYTFGQFILPGLAYAIPQWRWLQLTVSIPFFVFFLSSWWTPESIRWLVLSGKSSKALKILRRVAVFNGKKEEGERLSLEELKLNLQKEISLAKAKYTASDLFRIPMLRRMTFCLSLAWFATGFAYYSLAMGVEEFGVNLYILQIIFGGVDVPAKFITILSLSYLGRHTTQAAALLLAGGAILALTFVPLDLQTVRTVLAVFGKGCLSSSFSCLFLYTSELYPTVIRQTGMGVSNLWTRVGSMVSPLVKITGEVQPFIPNIIYGITALLGGSAALFLPETLNQPLPETIEDLENWSLRAKKPKQEPEVEKASQRIPLQPHGPGLGSS
B3: OAT4 (Homo sapiens) (protein)
chain: MAFSKLLEQAGGVGLFQTLQVLTFILPCLMIPSQMLLENFSAAIPGHRCWTHMLDNGSAVSTNMTPKALLTISIPPGPNQGPHQCRRFRQPQWQLLDPNATATSWSEADTEPCVDGWVYDRSVFTSTIVAKWDLVCSSQGLKPLSQSIFMSGILVGSFIWGLLSYRFGRKPMLSWCCLQLAVAGTSTIFAPTFVIYCGLRFVAAFGMAGIFLSSLTLMVEWTTTSRRAVTMTVVGCAFSAGQAALGGLAFALRDWRTLQLAASVPFFAISLISWWLPESARWLIIKGKPDQALQELRKVARINGHKEAKNLTIEVLMSSVKEEVASAKEPRSVLDLFCVPVLRWRSCAMLVVNFSLLISYYGLVFDLQSLGRDIFLLQALFGAVDFLGRATTALLLSFLGRRTIQAGSQAMAGLAILANMLVPQDLQTLRVVFAVLGKGCFGISLTCLTIYKAELFPTPVRMTADGILHTVGRLGAMMGPLILMSRQALPLLPPLLYGVISIASSLVVLFFLPETQGLPLPDTIQDLESQKSTAAQGNRQEAVTVESTSL
B4: OATP2B1 (Homo sapiens) (protein)
chain: MGPRIGPAGEVPQVPDKETKATMGTENTPGGKASPDPQDVRPSVFHNIKLFVLCHSLLQLAQLMISGYLKSSISTVEKRFGLSSQTSGLLASFNEVGNTALIVFVSYFGSRVHRPRMIGYGAILVALAGLLMTLPHFISEPYRYDNTSPEDMPQDFKASLCLPTTSAPASAPSNGNCSSYTETQHLSVVGIMFVAQTLLGVGGVPIQPFGISYIDDFAHNSNSPLYLGILFAVTMMGPGLAFGLGSLMLRLYVDINQMPEGGISLTIKDPRWVGAWWLGFLIAAGAVALAAIPYFFFPKEMPKEKRELQFRRKVLAVTDSPARKGKDSPSKQSPGESTKKQDGLVQIAPNLTVIQFIKVFPRVLLQTLRHPIFLLVVLSQVCLSSMAAGMATFLPKFLERQFSITASYANLLIGCLSFPSVIVGIVVGGVLVKRLHLGPVGCGALCLLGMLLCLFFSLPLFFIGCSSHQIAGITHQTSAHPGLELSPSCMEACSCPLDGFNPVCDPSTRVEYITPCHAGCSSWVVQDALDNSQVFYTNCSCVVEGNPVLAGSCDSTCSHLVVPFLLLVSLGSALACLTHTPSFMLILRGVKKEDKTLAVGIQFMFLRILAWMPSPVIHGSAIDTTCVHWALSCGRRAVCRYYNNDLLRNRFIGLQFFFKTGSVICFALVLAVLRQQDKEARTKESRSSPAVEQQLLVSGPGKKPEDSRV

How the values were obtained:
[1] = biological target: T1, OATP1B1; parameters: method as in PMID 23571415; settings: 10 μM in vitro; cited from earlier work
[2] = biological target: T2, OATP1B3; parameters: method as in PMID 23571415; settings: 10 μM in vitro; cited from earlier work
[3] = substrate: Cc1onc(-c2c(Cl)cccc2Cl)c1C(=O)N[C@@H]1C(=O)N2[C@@H]1SC(C)(C)[C@@H]2C(=O)O; assay: cells, lysate or membranes; settings: other: uptake, 2 min; pH 7.4; 37.0 °C
[4] = substrate: Cc1onc(-c2c(F)cccc2Cl)c1C(=O)N[C@@H]1C(=O)N2[C@@H]1SC(C)(C)[C@@H]2C(=O)O; assay: cells, lysate or membranes; settings: other: uptake, 2 min; pH 7.4; 37.0 °C

Molecule | inhibition of OATP1B1 transport [1] | inhibition of OATP1B3 transport [2] | Km [3] | Km [4] [µM]
Cc1onc(-c2ccccc2Cl)c1C(=O)N[C@@H]1C(=O)N2[C@@H]1SC(C)(C)[C@@H]2C(=O)O [cloxacillin] | around 50% | around 50% |  | 
B1 |  |  | 3.22 µM and 3 µM | 10.4
B2 |  |  | 22.4 µM | 27.0
B3 |  |  | 32.9 µM | 52.5
B4 |  |  | 34.7 µM | 41.6
